Measured values as given in US11633499B2, “Anti-TMEM-180 antibody, anticancer drug and cancer testing method” (NATIONAL CANCER CENTER JAPAN, priority 2016, dated 2023).

T1: TMEM-180 (Homo sapiens, UniProt Q14CX5)
T1 construct: endogenous in cells; host or cells: DLD-1 colon cancer cell line (parent / wild type); culture supernatant exosomes in A20
T1 sequence (Q14CX5 1-517): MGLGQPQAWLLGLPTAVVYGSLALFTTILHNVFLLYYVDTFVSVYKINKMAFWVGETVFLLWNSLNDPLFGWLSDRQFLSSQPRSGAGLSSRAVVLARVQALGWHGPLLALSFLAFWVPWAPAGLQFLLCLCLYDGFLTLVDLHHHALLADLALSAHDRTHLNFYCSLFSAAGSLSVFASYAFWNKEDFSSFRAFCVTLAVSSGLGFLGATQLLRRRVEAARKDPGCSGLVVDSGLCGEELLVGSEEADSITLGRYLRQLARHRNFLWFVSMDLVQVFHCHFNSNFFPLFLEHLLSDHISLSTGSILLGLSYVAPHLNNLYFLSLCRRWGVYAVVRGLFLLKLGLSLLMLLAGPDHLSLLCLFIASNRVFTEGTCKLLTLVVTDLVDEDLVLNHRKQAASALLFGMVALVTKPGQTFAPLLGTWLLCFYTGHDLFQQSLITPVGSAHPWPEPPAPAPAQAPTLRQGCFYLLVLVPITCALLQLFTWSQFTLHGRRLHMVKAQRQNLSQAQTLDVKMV


Experiments:
wild type DLD-1 cells = experiment: ADCC activity (51Cr release, TK176V effector cells), wild type DLD-1; type: cell-based, human; details: ET ratio 40; 4 hours; 0.064 to 1,000 ng/mL; FIGS. 20A to 20D
Procedure: Specifically, TK176V (a natural killer cell line stably expressing FcγRIII) was used as an effector cell, which was obtained from Chemicals Evaluation and Research Institute, Japan. The wild type DLD-1 cell line was used as a target cell.
T1 76V was cultured in RPM11640 containing 10 ng/mL IL-2 and 10% FBS. For passages, the medium was diluted with a fresh medium every 2 to 3 days. In the passage, the cells were detached by a trypsin treatment and then suspended in a fresh medium to be plated on a dish every 2 to 3 days.
The measurement of the ADCC activity was performed as described below.
First, the amount of 51Cr release was measured when only the target cells were cultured in medium as a negative control, which is referred to as “Spontaneous release measurement”. The amount of 51 Cr release was measured when the all target cells were damaged by adding 0.1% TRITON™ (surfactant) X-100, which is referred to as “Max release measurement.”
1) Adding DLD-1 WT labelled with 50 μCi of ^51Cr to a U-bottom, 96 well plate at 5,000 cells/50 μL/well.
2) Adding TK176V at 200,000 cells/50 μL/well (ET ratio: 40): A medium was added at 50 μL/well to the well for Spontaneous release measurement and the well for Max release measurement. […]

[1] = tested on: hematologic tumor K562 cells; experiment: Cytocidal effect of anti-TMEM-180 IgM antibody (WST-8), K562; type: cell-based; details: hybridoma culture supernatant adjusted to 80, 20 or 5 μg/mL, 96 hours, FIGS. 7 and 8
Procedure: (§1) DLD-1 cells and K562 cells were added to a 96-well plate at 1×10^3 cells/100 μL/well followed by culturing for 24 hours. 50 μL of medium were removed from each well of the 96-well plate followed by the addition of rat IgM antibody clone 98-producing hybridoma culture supernatant or rat IgM antibody clone 101-producing hybridoma culture supernatant, in which antibody concentration had been adjusted to 80 μg/mL, 20 μg/mL or 5 μg/mL, at 50 μL/well. Here, n number in each culture condition was 3, and wells containing medium only were prepared as controls. […] After culturing for 96 hours, WST-8 (Dojindo Laboratories, Cell Counting Kit-8) was added at 10 μL/well followed by measuring absorbance at 450 nm with a microplate reader after culturing for 3 hours. The relative values of absorbance at each antibody concentration were plotted by plotting antibody concentration on the horizontal axis and assigning a value of 1 to the optical absorbance of the well containing medium only. […] Cytocidal effects were also observed for other colon cancer cells Difi, Carl, SW480 and Colo201.

brain tumor cell lines = experiment: Flow cytometry (FACS) with anti-TMEM-180 IgM clones, brain tumor; type: binding; details: four types of brain tumors; FIG. 3
Procedure: (§2) Cancer cells targeted for measurement were cultured in medium and then added to a V-bottom 96-well plate (Corning Incorporated) to a concentration of 1×10^5 cells/well. The plate was centrifuged for 3 minutes at 440×g and 4° C. followed by removing the supernatant, adding antibody-producing hybridoma culture supernatant or antibody solution to the cell pellet at 50 μL/well and suspending therein. After allowing to react for 45 minutes on ice, the plate was washed three times with a mixture of 0.1% BSA, 2 mM EDTA and PBS at 200 μL/well. The supernatant was removed and secondary antibody was added to the cell pellet at 50 μL/well followed by suspending the cells therein. ALEXAFLUOR 647@ (fluorescent compound) goat anti-rat IgG (H-L) (Life Technologies Corporation) was used for the secondary antibody after diluting 400-fold with a mixture of 0.1% BSA, 2 mM EDTA and PBS. After allowing to react for 45 minutes on ice, the plate was washed three times with a mixture of 0.1% BSA, 2 mM EDTA and PBS at 200 μL/well. After removing the supernatant, 50 ng/mL of propidium iodide, 0.1% BSA, 2 mM EDTA and PBS were added to the cell pellet at 250 µL/well followed by suspending therein. The cells stained in this manner were measured using a flow cytometer such as the Guava easyCyte 8HT (Merck Millipore Corporation) followed by analysis of the resulting data using FlowJO (Tomy Digital Biology Co., Ltd.). FACS analysis was carried out using colon cancer, brain tumor and hematologic cancer.

[2] = tested on: human colon cancer formalin-fixed section; experiment: Immunostaining of formalin-fixed section of human colon cancer surgical specimens; type: binding; details: 1 μg/mL, FIG. 6
Procedure: Anti-TMEM-180 IgM rat antibody (clone 98) was reacted with a colon cancer formalin-fixed section at 1 μg/mL. HRP-labeled anti-rat antibody was used as secondary antibody and the section was stained with DAB followed by post-staining with hematoxylin.

TMEM-180 = target: T1, TMEM-180; experiment: FACS of DLD-1 parent line and TMEM-180 knockout line; type: binding
Procedure: The plate was centrifuged for 3 minutes at 440×g and 4° C. followed by removing the supernatant, adding antibody-producing hybridoma culture supernatant or antibody solution to the cell pellet at 50 μL/well and suspending therein. After allowing to react for 45 minutes on ice, the plate was washed three times with a mixture of 0.1% BSA, 2 mM EDTA and PBS at 200 μL/well. The supernatant was removed and secondary antibody was added to the cell pellet at 50 μL/well followed by suspending the cells therein. […] After allowing to react for 45 minutes on ice, the plate was washed three times with a mixture of 0.1% BSA, 2 mM EDTA and PBS at 200 μL/well. […] The cells stained in this manner were measured using a flow cytometer such as the Guava easyCyte 8HT (Merck Millipore Corporation) followed by analysis of the resulting data using FlowJO (Tomy Digital Biology Co., Ltd.). FACS analysis was carried out using colon cancer, brain tumor and hematologic cancer.
Flow cytometry was carried out in accordance with the procedure described in the above-mentioned section 3. […] The supernatant of a culture of hybridoma producing rat IgM antibody clone 365 was used as a negative control after similarly diluting to 1 μg/mL. […] A mixture of RPMI and 10% FBS was used to dilute each of the antibodies. Furthermore, antibody concentration in the hybridoma culture supernatant was measured by rat IgM-specific ELISA (Bethyl Laboratories).

colon cancer cell lines = experiment: Flow cytometry (FACS) with anti-TMEM-180 IgM clones, colon cancer; type: binding; details: six types of colon cancers; FIG. 3
Procedure: as §2

colon cancer DLD-1 cells = experiment: Cytocidal effect of anti-TMEM-180 IgM antibody (WST-8), DLD-1; type: cell-based, human; details: hybridoma culture supernatant adjusted to 80, 20 or 5 μg/mL, 96 hours, FIGS. 7 and 8
Procedure: as §1

DLD-1 colon cancer cells = experiment: Fluorescent immunostaining of DLD-1 colon cancer cells; type: binding, human; details: fixed and permeabilized DLD-1; antibody concentrations of clones not aligned; FIG. 4
Procedure: DLD-1 cells were added to a 96-well plate (Corning Incorporated, CeIIBIND) to a concentration of 5×10^3 cells/well and subjected to cell staining after culturing for 2 days. The cells were subjected to fixation and permeation treatment in the manner indicated below. After washing the cell culturing plate twice with PBS at 200 μL/well, the washings were removed followed by the addition of 4% para-formaldehyde-phosphate buffer (Wako Pure Chemical Industries, Ltd.) containing 0.1% TRITON™ (surfactant) X-100 (Wako Pure Chemical Industries, Ltd.) at 100 µL/well while cooling with ice and fixing the cells for 10 minutes. After removing the fixation solution, the plate was washed once with PBS at 200 μL/well and once with a mixture of 1% FBS in PBS at 200 μL/well to obtain a cell-immobilized plate. The cells were stained in the manner indicated below. Namely, after removing medium from the non-immobilized cell culturing plate and removing washings from the cell-immobilized plate, […] hybridoma culture supernatant or diluted antibody solution was added at 50 μL/well. After allowing to react for 1 hour on ice, the plate was washed once with PBS at 200 μL/well and twice with a mixture of 1% FBS in PBS at 200 μL/well. After removing the washings, a mixture of 5 μg/mL ALEXAFLUOR 647@ (fluorescent compound) goat anti-rat IgG (H-L), 2 μg/mL Hoechst 33342 and 1% FBS/PBS was added at 50 μL/well. After allowing to react for 1 hour on ice, the plate was washed twice with PBS at 200 μL/well. PBS was then added at 50 μL/well followed by measuring with ArrayScan (Thermo Fisher Scientific Inc.).

| FACS shift, TMEM-180 knockout line versus parent line (TMEM-180; DLD-1 parent line vs TMEM-180 knockout line, FIG. 5) | specific recognition of TMEM-180 (TMEM-180; conclusion from DLD-1 parent vs knockout FACS) | Molecule | ADCC activity against wild type DLD-1 cells (wild type DLD-1 cells) | cytocidal effects against K562 cells [1] | FACS reactivity to brain tumors (brain tumor cell lines) | staining of colon cancer section ([2]; DAB) | localisation of staining in colon cancer cells [2] | FACS reactivity to colon cancers (colon cancer cell lines) | cytocidal effects against DLD-1 cells (colon cancer DLD-1 cells) | fluorescent immunostaining (pattern, intensity) (DLD-1 colon cancer cells) |
| --- | --- | --- | --- | --- | --- | --- | --- | --- | --- | --- |
| – | – | Variant 1: Fc-modified clone of 1361-5 with triple substitutions S239D/A330L/1332E in the Fc region (antibody) heavy: EVQLVESGGGLVQPGRSLKLSCVASGFTFNNYWMTWIRQAPGKGLEWVASITNTGGSTAYPDSVKGRFTISRDYAKSTLYLQMNSLRSEDTATYYCTRAGYSSYPDYFDYWGQGVMLTVSSASTKGPSVFPLAPSSKSTSGGTAALGCLVKDYFPEPVTVSWNSGALTSGVHTFPAVLQSSGLYSLSSVVTVPSSSLGTQTYICNVNHKPSNTKVDKKVEPKSCDKTHTCPPCPAPELLGGPDVFLFPPKPKDTLMISRTPEVTCVVVDVSHEDPEVKFNWYVDGVEVHNAKTKPREEQYNSTYRVVSVLTVLHQDWLNGKEYKCKVSNKALPLPEEKTISKAKGQPREPQVYTLPPSRDELTKNQVSLTCLVKGFYPSDIAVEWESNGQPENNYKTTPPVLDSDGSFFLYSKLTVDKSRWQQGNVFSCSVMHEALHNHYTQKSLSLSPGK light: MMAPVQLLGLLLLWLPAMRCNIQMTQSPSLLSASVGDRVTLSCKAGQNIYNYLAWYQQKLGEAPKLLIYNANSLQTGIPSRFSGSGSGTDFTLTISSLQPEDVATYFCQQYSSGWTFGGGTKLELKRTVAAPSVFIFPPSDEQLKSGTASVVCLLNNFYPREAKVQWKVDNALQSGNSQESVTEQDSKDSTYSLSSTLTLSKADYEKHKVYACEVTHQGLSSPVTKSFNRGEC | equal to or stronger than that of the 1361-5 antibody | – | – | – | – | – | – | – |
| – | – | Variant 2: Fc-modified clone of 1361-5 with triple substitutions S239D/1332E/E333A in the Fc region (antibody) heavy: EVQLVESGGGLVQPGRSLKLSCVASGFTFNNYWMTWIRQAPGKGLEWVASITNTGGSTAYPDSVKGRFTISRDYAKSTLYLQMNSLRSEDTATYYCTRAGYSSYPDYFDYWGQGVMLTVSSASTKGPSVFPLAPSSKSTSGGTAALGCLVKDYFPEPVTVSWNSGALTSGVHTFPAVLQSSGLYSLSSVVTVPSSSLGTQTYICNVNHKPSNTKVDKKVEPKSCDKTHTCPPCPAPELLGGPDVFLFPPKPKDTLMISRTPEVTCVVVDVSHEDPEVKFNWYVDGVEVHNAKTKPREEQYNSTYRVVSVLTVLHQDWLNGKEYKCKVSNKALPAPEAKTISKAKGQPREPQVYTLPPSRDELTKNQVSLTCLVKGFYPSDIAVEWESNGQPENNYKTTPPVLDSDGSFFLYSKLTVDKSRWQQGNVFSCSVMHEALHNHYTQKSLSLSPGK light: MMAPVQLLGLLLLWLPAMRCNIQMTQSPSLLSASVGDRVTLSCKAGQNIYNYLAWYQQKLGEAPKLLIYNANSLQTGIPSRFSGSGSGTDFTLTISSLQPEDVATYFCQQYSSGWTFGGGTKLELKRTVAAPSVFIFPPSDEQLKSGTASVVCLLNNFYPREAKVQWKVDNALQSGNSQESVTEQDSKDSTYSLSSTLTLSKADYEKHKVYACEVTHQGLSSPVTKSFNRGEC | equal to or stronger than that of the 1361-5 antibody | – | – | – | – | – | – | – |
| considerable left shift | specifically recognize TMEM-180 | clone 98: rat IgM anti-TMEM-180 monoclonal antibody; heavy chain variable region SEQ ID NO: 13, light chain variable region SEQ ID NO: 14 (antibody, V domains shown) VH: MAVLVLLLCLVTFPTCVLSQVQLKESGPGLVQPSQTLSLTCTVSGFSLTRYNVHWVRQPTGKGLEWMGVIWTGGSTDYNSALKSRLSISRDTSKSQVFLKMNSLQTEDIATYYCARDLGYWGQGVMVTVSS VL: MMSPAQFLFLLMLWIQETHSDIVMTQTPLSLSVAIGQSASISCKSSQSLKYRDGKTYLNWVFQSPGQSPKRLIYQVSKLDSGVPDRFSGTGSETDFTLKISRVEAEDLGVYYCCQGSYSPHTFGAGTKLELK | – | did not demonstrate cytocidal effects | all four types of brain tumors | stained specifically | Both the cell membrane and cytoplasm of the colon cancer cells were stained | positive for all six types of colon cancers | demonstrated cytocidal effects | stained primarily in the membrane |
